Earlier results in article PMC7519539.
pKd: −log10 of the molar value.

Target: RNA polymerase core (E) (Escherichia coli) (UniProt P0A7Z4)

Sequence of sigma38 (P13445 whole entry): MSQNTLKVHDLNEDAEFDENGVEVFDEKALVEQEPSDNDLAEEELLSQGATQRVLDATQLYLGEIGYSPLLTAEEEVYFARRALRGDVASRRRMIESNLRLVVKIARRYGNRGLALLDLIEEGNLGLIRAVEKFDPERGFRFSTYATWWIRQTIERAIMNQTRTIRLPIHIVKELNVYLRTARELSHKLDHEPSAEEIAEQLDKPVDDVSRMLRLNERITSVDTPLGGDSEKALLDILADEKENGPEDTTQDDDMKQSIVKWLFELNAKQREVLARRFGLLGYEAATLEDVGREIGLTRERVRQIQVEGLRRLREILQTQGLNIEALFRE

pKd: 8.37
Substance: sigma38 (from UniProt P13445)
